# Test results reported in FireProtDB (doi:10.1038/12277).
# Conditions: Escherichia coli (strain K12), pH 5.5, CD, Potassium phosphate 2 mM, KF 5 mM, reversible: yes, whole UniProt chain shown
protein,measurement,setting,value
"Ribonuclease HI wild type, P0A7Y4 (protein) MLKQVEIFTDGSCLGNPGPGGYGAILRYRGREKTFSAGYTRTTNNRMELMAAIVALEALKEHCEVILSTDSQYVRQGITQWIHNWKKRGWKTADKKPVKNVDLWQRLDAALGQHQIKWEWVKGHAGHPENERCDELARAAAMNPTLEDTGYQVEV",denaturant m value,"25 °C, Urea",2.1 kcal/mol/M
same,unfolding free energy,"25 °C, Urea",9.7 kcal/mol
same,Tm,Thermal,47.8 °C
